# Experimental data published in patent US20240409645A1 (DUALYX, published 2024).
# Like-named read-outs stand apart in the source and are kept apart here.
# T1: human IL-2 receptor (IL-2Rα/IL-2Rβ/γc) (human, UniProt P01589 22-272; P14784 27-551; P31785 23-369)
# T1 sequence 1: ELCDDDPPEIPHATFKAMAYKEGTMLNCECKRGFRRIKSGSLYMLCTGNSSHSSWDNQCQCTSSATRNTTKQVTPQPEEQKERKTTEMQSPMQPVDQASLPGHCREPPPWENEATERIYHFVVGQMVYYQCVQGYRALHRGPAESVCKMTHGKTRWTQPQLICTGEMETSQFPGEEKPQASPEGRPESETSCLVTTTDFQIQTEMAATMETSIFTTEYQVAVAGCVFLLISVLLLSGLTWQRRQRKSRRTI
# T1 sequence 2: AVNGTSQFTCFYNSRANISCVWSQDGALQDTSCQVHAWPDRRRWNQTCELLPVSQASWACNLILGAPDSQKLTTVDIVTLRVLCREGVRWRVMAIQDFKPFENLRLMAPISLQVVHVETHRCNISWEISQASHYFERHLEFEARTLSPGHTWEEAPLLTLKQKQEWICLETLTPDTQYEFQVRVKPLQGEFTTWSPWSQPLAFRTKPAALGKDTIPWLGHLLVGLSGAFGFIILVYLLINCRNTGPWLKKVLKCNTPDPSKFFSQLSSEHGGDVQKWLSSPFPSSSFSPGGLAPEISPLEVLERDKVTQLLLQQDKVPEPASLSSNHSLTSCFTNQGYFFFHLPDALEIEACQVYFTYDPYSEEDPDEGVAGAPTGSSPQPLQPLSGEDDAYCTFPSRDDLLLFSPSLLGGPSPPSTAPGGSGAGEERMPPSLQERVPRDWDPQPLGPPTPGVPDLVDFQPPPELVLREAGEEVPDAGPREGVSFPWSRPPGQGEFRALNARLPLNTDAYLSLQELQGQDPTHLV
# T1 sequence 3: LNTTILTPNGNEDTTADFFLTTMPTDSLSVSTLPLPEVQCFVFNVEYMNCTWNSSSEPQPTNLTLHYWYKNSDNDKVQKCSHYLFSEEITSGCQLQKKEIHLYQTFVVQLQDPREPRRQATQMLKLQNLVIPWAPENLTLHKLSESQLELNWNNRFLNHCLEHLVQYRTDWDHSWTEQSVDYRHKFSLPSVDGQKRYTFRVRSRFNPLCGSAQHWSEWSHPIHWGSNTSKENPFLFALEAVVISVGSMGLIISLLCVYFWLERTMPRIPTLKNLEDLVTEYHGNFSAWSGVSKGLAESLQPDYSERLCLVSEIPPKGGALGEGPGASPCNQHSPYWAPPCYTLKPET
# B1: DC00093 (other)
# chain 1: QLQLVESGGGLVQAGDSLRLSCAASGFNFGWHAMGWFRQAPGKEREFVATITWTGRDTYYADSVRGRFTISKDNAKDTLFLQMNSLRPDDTGVYYCAKARERATWAYSEDDCDYWGQGTQVTVSSDKTHTCPPCPAPEAAGGPSVFLFPPKPKDTLMISRTPEVTCVVVDVSHEDPEVKFNWYVDGVEVHNAKTKPREEQYNSTYRVVSVLTVLHQDWLNGKEYKCKVSNKALGAPIEKTISKAKGQPREPQVYTLPPSRDELTKNQVSLTCLVKGFYPSDIAVEWESNGQPENNYKTTPPVLDSDGSFLLYSKLTVDKSRWQQGNVFSCSVMHEALHNHYTQKSLSLSPGK
# chain 2: QVQLVESGGGLVQAGGSLTLSCAAPGRTFGTDVVGWFRQAPGKEREFVASISRSGDGIYYDDSVKGRFTISRNNAWNTVNLQMNSLKVEDTAVYYCAAGDGWSTYDYWGQGTQVTVSSGGGGSGGGGSGGGGSEVQLVESGGGLVQTGGSLRLSCAASGGTFSRDAMAWFRQVPGKEREFVALISWSGATTNYADSVKGRFAISRDNGKNTVYLQMNRLKPADTAIYYCAADRRPMGSRSYFEPTEYDDWGQGTQVTVSSGGGGSGGGGSGGGGSQVQLVESGGGLVQPGGSLRLSCATSGFTFRNNFMSWVRQAPGKGLEWVSTISYGGESTTYAESVKGRFTISRDNAKNTLYLQMNNLKPEDTAVYYCAKATSYDSIRSGSRGQGTQVTVSSDKTHTCPPCPAPEAAGGPSVFLFPPKPKDTLMISRTPEVTCVVVDVSHEDPEVKFNWYVDGVEVHNAKTKPREEQYNSTYRVVSVLTVLHQDWLNGKEYKCKVSNKALGAPIEKTISKAKGQPREPQVYTLPPSRDELTKNQVSLTCLVKGFYPSDIAVEWESNGQPENNYKTTPPVLDSDGSFFLYSRLTVDKSRWQQGNVFSCSVMHEALHNHYTQKSLSLSPGK
# B2: DC00060 (other)
# chain 1: QVQLVESGGGLVQPGGSLRLSCATSGFTFRNNFMSWVRQAPGKGLEWVSTISYGGESTTYAESVKGRFTISRDNAKNTLYLQMNNLKPEDTAVYYCAKATSYDSIRSGSRGQGTQVTVSSGGGGSGGGGSGGGGSEVQLVESGGGLVQTGGSLRLSCAASGGTFSRDAMAWFRQVPGKEREFVALISWSGATTNYADSVKGRFAISRDNGKNTVYLQMNRLKPADTAIYYCAADRRPMGSRSYFEPTEYDDWGQGTQVTVSSGGGGSGGGGSGGGGSDKTHTCPPCPAPEAAGGPSVFLFPPKPKDTLMISRTPEVTCVVVDVSHEDPEVKFNWYVDGVEVHNAKTKPREEQYNSTYRVVSVLTVLHQDWLNGKEYKCKVSNKALGAPIEKTISKAKGQPREPQVYTLPPSRDELTKNQVSLTCLVKGFYPSDIAVEWESNGQPENNYKTTPPVLDSDGSFLLYSKLTVDKSRWQQGNVFSCSVMHEALHNHYTQKSLSLSPGK
# chain 2: QVQLVESGGGLVQPGGSLRLSCATSGFTFRNNFMSWVRQAPGKGLEWVSTISYGGESTTYAESVKGRFTISRDNAKNTLYLQMNNLKPEDTAVYYCAKATSYDSIRSGSRGQGTQVTVSSGGGGSGGGGSGGGGSQVQLVESGGGLVQAGGSLTLSCAAPGRTFGTDVVGWFRQAPGKEREFVASISRSGDGIYYDDSVKGRFTISRNNAWNTVNLQMNSLKVEDTAVYYCAAGDGWSTYDYWGQGTQVTVSSGGGGSGGGGSGGGGSDKTHTCPPCPAPEAAGGPSVFLFPPKPKDTLMISRTPEVTCVVVDVSHEDPEVKFNWYVDGVEVHNAKTKPREEQYNSTYRVVSVLTVLHQDWLNGKEYKCKVSNKALGAPIEKTISKAKGQPREPQVYTLPPSRDELTKNQVSLTCLVKGFYPSDIAVEWESNGQPENNYKTTPPVLDSDGSFFLYSRLTVDKSRWQQGNVFSCSVMHEALHNHYTQKSLSLSPGK
# Columns and labels:
# [1] = molecular target: T1, human IL-2 receptor (IL-2Rα/IL-2Rβ/γc); assay: cell-based or functional assay
# [2] = molecular target: T1, human IL-2 receptor (IL-2Rα/IL-2Rβ/γc); assay: cell-based or functional assay; remark: listed apart in the source
binder,measurement,setting,value
B1,"EC50 (nM) pSTAT5, NK, human PBMCs",[1],0.0752 nM
same,"EC50 (nM) pSTAT5, Treg, human PBMCs",[1],0.735 nM
same,Fold Max signal (% pSTAT5+) Treg/NK,[1],6 fold
same,"Max signal (% pSTAT5+), NK",[1],11.4 % pSTAT5+
same,"Max signal (% pSTAT5+), Treg",[1],66.7 % pSTAT5+
B2,"EC50 (nM) pSTAT5, NK, human PBMCs",[2],0.645 nM
same,"EC50 (nM) pSTAT5, Treg, human PBMCs",[2],0.00334 nM
same,Fold Max signal (% pSTAT5+) Treg/NK,[2],7 fold
same,"Max signal (% pSTAT5+), NK",[2],8 % pSTAT5+
same,"Max signal (% pSTAT5+), Treg",[2],56 % pSTAT5+
same,fold EC50 NK/Treg,[2],193 fold
same,"EC50 (nM) pSTAT5, NK, human PBMCs",[1],0.769 nM
same,"EC50 (nM) pSTAT5, Treg, human PBMCs",[1],0.00215 nM
same,Fold Max signal (% pSTAT5+) Treg/NK,[1],8 fold
same,"Max signal (% pSTAT5+), NK",[1],2.49 % pSTAT5+
same,"Max signal (% pSTAT5+), Treg",[1],19.8 % pSTAT5+
same,fold EC50 NK/Treg,[1],358 fold
